From PMC9321427

Columns and labels:
β-arrestin1-YFP = β-arrestin1-YFP (UniProt P49407); assay: BRET (PAR2-Rluc8 / β-arrestin1-YFP) in cells; settings: read off a plot

response (ligand induced ΔBRET) (β-arrestin1-YFP; cells stimulated with GzmK (concentration not given for panel D), parent: est. 0.027) | response (ligand induced ΔBRET) (β-arrestin1-YFP; cells treated with GzmK-AI (inactive GzmK; concentration not given for panel D), parent: est. -0.001) | cleavage product as percent of total peptide by HPLC after 15 h with granzyme (PAR2 peptide 10 (human)) | Molecule
0.0038 | -0.0015 |  | PAR2-Rluc8 (protease-activated receptor 2 fused to Renilla luciferase 8), uncleaved as expressed (from UniProt P55085) Arg36Ala
 |  | 6.6 % of total | Granzyme A (enzyme) IIGGNEVTPHSRPYMVLLSLDRKTICAGALIAKDWVLTAAHCNLNKRSQVILGAHSITREEPTKQIMLVKKEFPYPCYDPATREGDLKLLQLMEKAKINKYVTILHLPKKGDDVKPGTMCQVAGWGRTHNSASWSDTLREVNITIIDRKVCNDRNHYNFNPVIGMNMVCAGSLRGGRDSCNGDSGSPLLCEGVFRGVTSFGLENKCGDPRGPGVYILLSKKHLNWIIMTIKGAV
 |  | 53 % of total | Granzyme K (enzyme) IIGGKEVSPHSRPFMASIQYGGHHVCGGVLIDPQWVLTAAHCQYRFTKGQSPTVVLGAHSLSKNEASKQTLEIKKFIPFSRVTSDPQSNDIMLVKLQTAAKLNKHVKMLHIRSKTSLRSGTKCKVTGWGATDPDSLRPSDTLREVTVTVLSRKLCNSQSYYNGDPFITKDMVCAGDAKGQKDSCKGDSGGPLICKGVFHAIVSGGHECGVATKPGIYTLLTKKYQTWIKSNLVPPHTN
